Assay results from patent US20060134122A1, “Peptides of syndecan-1 for inhibition of cancer” (priority 2004, published 2006).

Tested on: MDA-MB-231 human mammary carcinoma cells
Experiment: Cell spreading assay (rhodamine-phalloidin), MDA-MB-231
Format: cell-based
Details: 2 h, LM609 30 μg/mL, GST-mS1ED or GST-mS4ED 20 μM; for cell spreading on FN: wells coated with 10 μg/mL FN, mAb 13 25 μg/mL; for cell spreading on VN: wells coated with 10 μg/mL VN, absence of serum
Protocol: FIG. 1 —MDA-MB-231 human mammary carcinoma cell spreading on VN, but not FN, is disrupted by soluble, recombinant Sdc-1ED. Cells were plated on wells coated with 10 μg/mL of VN or FN in plating medium alone or medium containing either 30 μg/mL mAb LM609, 25 μg/mL mAb 13, 20 μM GST-mS1ED or -mS4ED. Cells were incubated at 37° C. for 2 h, fixed and stained with rhodamine-conjugated phalloidin. Bar, 50 μm.
FIGS. 6A-B—Deletion of a region of the Sdc-1ED blocks αvβ3-mediated cell spreading. (FIG. 6A) Graphic representation of S1 expression constructs transfected into MDA-MB-231 cells and their relative expression levels as detected by FACS (mean fluorescent intensity). Note the locations of the mAb 281.2 and B-B4 binding sites; asterisks indicate the HS attachment sites. (FIG. 6B) Cells transfected with empty vector (NEO) or S1 constructs were seeded in plating medium on wells coated with either anti-hS1 mAb B-B4 (NEO+inset, hS1 and insets of mS1) or anti-mS1 mAb 281.2 (all others). Where noted, cells were pretreated in suspension with 1 μg/mL mAb P5D2 for 15 min prior to plating. Cells were incubated at 37° C. for 2 h, fixed and stained with rhodamine-conjugated phalloidin. Bar, 50 μm.
FIGS. 8A-H—Downregulation of Sdc-1 expression by siRNA disrupts cell spreading and migration on VN. (FIG. 8A) SiRNA targeting of hS1 mRNA. FACS analysis for (FIGS. 8B-C) hS1 (mAb B-B4), (FIG. 8D) hS4 (mAb F94-8G3) and (FIG. 8E) mS1 (mAb 281.2) expression against IgG controls (black filled histograms) in NEO and GPI-mS1ED expressing MDA-MB-231 cells 72 h after transfection with either lipid-vehicle alone (Vehicle or (V)) or 200 nM siRNA (RNAi or (R)). (FIG. 8F) NEO^MDA-MB-231 cells and MDA-MB-231 cells expressing GPI-mS1ED, mS1^Δ88-252, mS1^Δ122-252 and mS1^TDM were transfected with lipid-vehicle alone or 200 nM hS1-siRNA and seeded on wells coated with either 10 μg/ml of VN or FN. Cells were incubated at 37° C. for 2 h, fixed and stained with rhodamine-conjugated phalloidin. Bar, 50 μm. (FIG. 8G-H) Lipid-vehicle (gray-filled) or hS1-siRNA (black-filled) transfected cells were also plated on polycarbonate filters coated with either 10 μg/ml of VN (FIG. 8G) or FN (FIG. 8H) in a modified Boyden chamber. After 16 h, cells that migrated through the filter in response to 10% FBS in the lower chamber were quantified by colorimetric staining.
MDA-MB-231 human mammary carcinoma cells, plated in the absence of serum, adhere to and spread (˜15-20 min after plating) on wells coated with either 10 μg/mL VN or FN (FIG. 1). […] LM609 has no effect on spreading in response to FN; instead, the cells rely on […] to respond to FN as spreading is blocked by either 25 μg/mL mAb 13 (FIG. 1; Mould et al., 1996) or mAb 16 (unpublished data; Akiyama et al., 1989). […]

B1: GST-mS1ED: recombinant mouse syndecan-1 ectodomain expressed as a fusion protein with GST (protein)
chain: QIVAVNVPPEDQDGSGDDSDNFSGSGTGALPDTLSRQTPSTWKDVWLLTATPTAPEPTSSNTETAFTSVLPAGEKPEEGEPVLHVEAEPGFTARDKEKEVTTRPRETVQLPITQRASTVRVTTAQAAVTSHPHGGMQPGLHETSAPTAPGQPDHQPPRVEGGGTSVIKEVVEDGTANQLPAGEGSGEQDFTFETSGENTAVAAVEPGLRNQPPVDEGATGASQSLLDRKEVLG
modifications: left off: a dimerising Fc or GST
notes: recombinant mouse syndecan-1 ectodomain expressed as a fusion protein with GST
- cell spreading on FN: no effect
- cell spreading on VN: blocks cell spreading

B2: GST-mS4ED: recombinant GST fusion of mouse syndecan-4 ectodomain, specificity control (protein)
chain: ESIRETEVIDPQDLLEGRYFSGALPDDEDAGGSDDFELSGSGDLDDTEEPRPFPEVIEPLVPLDNHIPENAQPGIRVPSEPKELEENEVIPKRAPSDVGDDMSNKVSMSSTAQGSNIFERTE
modifications: left off: a dimerising Fc or GST
notes: recombinant GST fusion of mouse syndecan-4 ectodomain, specificity control
- cell spreading on FN: no effect
- cell spreading on VN: no effect
